Source: publication PMC9371925 (Nucleic Acids Research, 2022)
“And” between values parts separate entries of the source, which are not always exact repeats. Equal values may be shown once. Read-outs that look alike come from different tables or passages of the source.

Tests used:
[1] = biological target: Streptomyces coelicolor zinc uptake regulator (ScZur) (Streptomyces coelicolor M145); assay: cryo-EM structure
cryo-EM structure = biological target: the molecule itself; assay: cryo-EM structure
ScZur [2] = biological target: T1, ScZur (Streptomyces coelicolor M145, UniProt Q9L2H5 1-139); assay: EMSA
T1 sequence: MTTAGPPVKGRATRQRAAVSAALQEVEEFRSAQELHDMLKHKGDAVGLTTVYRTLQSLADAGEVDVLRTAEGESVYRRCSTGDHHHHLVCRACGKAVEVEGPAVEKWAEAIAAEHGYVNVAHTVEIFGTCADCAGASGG

ScZur [3] = biological target: T1, ScZur; assay: EMSA; remark: listed apart in the source

For “Streptomyces coelicolor zinc uptake regulator (ScZur) (natural protein)”, the stoichiometry N [1] was 6 and 4.

B1: Streptomyces coelicolor RNA polymerase α subunit (natural protein, Streptomyces coelicolor M145)
chain: MLIAQRPSLTEEVVDEFRSRFVIEPLEPGFGYTLGNSLRRTLLSSIPGAAVTSIRIDGVLHEFTTVPGVKEDVTDLILNIKQLVVSSEHDEPVVMYLRKQGPGLVTAADIAPPAGVEVHNPDLVLATLNGKGKLEMELTVERGRGYVSAVQNKQVGQEIGRIPVDSIYSPVLKVTYKVEATRVEQRTDFDKLIVDVETKQAMRPRDAMASAGKTLVELFGLARELNIDAEGIDMGPSPTDAALAADLALPIEELELTVRSYNCLKREGIHSVGELVARSEADLLDIRNFGAKSIDEVKAKLAGMGLALKDSPPGFDPTAAADAFGADDDADAGFVETEQY
B1: binds (cryo-EM structure).

B2: zitB Zur-box 33 bp (-68 to -36) (dsDNA)
DNA 1: CAAGGCACATGACAACGGTGTTCAGTGCCGCGT
DNA 2: ACGCGGCACTGAACACCGTTGTCATGTGCCTTG
Work on B2 yielded a Kd (ScZur [2]) of 34 ± 0.7 nM.

B3: M2 33 bp (dsDNA)
DNA 1: CAAGGCACATCACAACTGTGTTGAGTGCCGCGT
DNA 2: ACGCGGCACTCAACACAGTTGTGATGTGCCTTG
Work on B3 yielded a Kd (ScZur [3]) of 223 ± 30.5 nM.
